The nanobody polyreactivity screen of Harvey et al. (2022)

Assay: yeast display, Sf9 membrane polyspecificity reagent, FACS + sequencing; frameworks hold sequencing errors
Procedure, shortened: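 Sorting gates, low and high (top ~1%), were placed on anti-HA fluorescence to track expression and on streptavidin fluorescence to track reagent binding. A clone's polyreactivity label is taken from the gate it came out of. The reagent was 10% biotinylated, detergent-solubilized Sf9 membrane, applied for 1 hour at 4 °C to galactose-induced yeast display cells.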

| Sequence | polyreactivity (PSR sort gate) |
| --- | --- |
| QVQLVESGGGLVQAGGSLRLSCAASGRIFRGYVMGWYRQAPGKERELVAITIGAGRTYYADSVKGRFTISRDNAKNTVYLQMISLKPEDTAVYYFAVRLYANSGRFDYWGQGTQVTVSS | low polyreactivity |
| QVQLVESGGGLVQAGGSLRLSCAASGRIFRHNPMGWYRQAPGKERELVAAITSRGGTYYADSVKGRFTISRDNAKNTVYFQMNSVKPEDTAVYYCAADRPIYPYPGKGFRYDYWGQGTQVTVSS | low polyreactivity |
| QVQLVESGGGLVQAGGSLRLSCAASGRIFRHNTMGWYRQAPGKERELVAGITASGGDTYYADSVKGRFTISRDNAKNTVYLDMNSLKPEDTAVYYCATSQYGYRSWPGLYYWGQGTQVTVSS | low polyreactivity |
| QVQLVESGGGLVQAGGSLRLSCAASGRIFRINAMGWYRQAPGKERELVASISRRGGNTYYADSVKGRFTISRDNAKNTVYLQMNSLKPEDTAVYYCAADTNQERTFYYWGQGTQVTVSS | low polyreactivity |
| QVQLVESGGGLVQAGGSLRLSCAASGRIFRINAMGWYRQAPGKERELVASITSRAGSTYYADSVKGRFTISRDNAKNTVYLQMTSLKPEDTAVYDCAARSVYTYYRLDYWGQGSQVTVSS | high polyreactivity |
| QVQLVESGGGLVQAGGSLRLSCAASGRIFRINTMGWNRQAPGKERELVAAIRTSGSSTYADSVKGRFTISRDNAKNTVYLQMNSLKPEDTAVYYCNTKYPGRGYYWGQGTQVTVSS | high polyreactivity |
| QVQLVESGGGLVQAGGSLRLSCAASGRIFRIYAMGWYIQAPGKERELVARITYSVGSTYYADSVKGRFTISRDNEKNSVFLQMNSLKPEDTSVYYCAADWLGYQYGYWGQGSQVTVSS | low polyreactivity |
| QVQLVESGGGLVQAGGSLRLSCAASGRIFRKYTMGWYRQAPGKERELVAAISARGGSTYYADSVKGRFTISRDNAKNTVYLQMNSLKPEDTAVYYCTTSPIGNITYRYDYWGQGTQVTVSS | high polyreactivity |
| QVQLVESGGGLVQAGGSLRLSCAASGRIFRLYALGWDRQAPGKERELVATITSGGTYYADSVKGRFTISRDNAKNTVYLQMNSLKPEDTAVYYCAAHSGSTYKYWGQGTQVTVSS | low polyreactivity |
| QVQLVESGGGLVQAGGSLRLSCAASGRIFRLYAMGWYRQAPGKEREFVATITWIGGRTYYADSVKGRFTISRDNAKNTVYLQMNSLKPEDTAVYYCAADPGYTYEYWGQGTQVTVSS | low polyreactivity |
| QVQLVESGGGLVQAGGSLRLSCAASGRIFRLYAMGWYRQAPGKERELVAAISKSGGSTYYADSVKGRFTISRDNAKYTVYLQMNSLNPEDTAVYYCAADYRTHGGYVGTFDYWGQGTQVTVSS | low polyreactivity |
| QVQLVESGGGLVQAGGSLRLSCAASGRIFRLYVMGWYRQAPGKERELVARIRIRDSNTYYADSVKGRFTISRDNAKHTVYLQMNSLKPEDTAVYYCAVVATYVYSKYDYWGQGTQVTVSS | low polyreactivity |
| QVQLVESGGGLVQAGGSLRLSCAASGRIFRNAMGWYRQAPGKERELVAAISSGGSTNYADSVKGRFTISRDNAKNTVYLQMNSLKPEDTAVYYCAADWDWWYQEFDYWGQGTQVTVSS | high polyreactivity |
| QVQLVESGGGLVQAGGSLRLSCAASGRIFRNNAMGWYRQAPGKERELVAAITWSGGSTYYADSVKGRFTISRDNAKNTVYLQMNSLKPEDTAVYYCNAGRGYKYSYTYDYWGQGTQVTVSS | low polyreactivity |
| QVQLVESGGGLVQAGGSLRLSCAASGRIFRNYAMGWYRQAPGKERELVAAISSGGGSTYYADSVKGRFTISRDNAKNTVYLQMNSLKPEDTAVYYCNARYVYYGKFREYDYWGQGTQVTVSS | high polyreactivity |
| QVQLVESGGGLVQAGGSLRLSCAASGRIFRNYAMGWYRQAPGKERELVAAISTRSGSTYYADSVKGRFTISRDNAKNTVYLQMNSLKPEDTAVYYCNKVSVGRYYALYYWGQGTKVTVSS | high polyreactivity |
| QVQLVESGGGLVQAGGSLRLSCAASGRIFRNYGMGWYRQAPGKERELVATITWTGGSTFYADSVKGRFTISRDNAKNTVYLQMNSLKPEDTAVYYCAAEWHRLIYFSPRYDFDYWGQGTQVTVSS | low polyreactivity |
